Test [1] has as its target Mutual gliding-motility protein B (MglB) (Myxococcus xanthus) (UniProt Q1DB03). Nature of the test: SAXS; SAXSpace line collimation, 20 °C; MglB 25, 15, 10 mg/ml; MglC 35, 15, 20 mg/ml; MglBC and MglB^ΔCTC complexes freshly eluted from SEC.
Test [2] addresses Mutual gliding motility protein C (MglC) (Myxococcus xanthus). The test is described as above.
Test [3] has as its target Mutual gliding-motility protein B (MglB) (Myxococcus xanthus) (UniProt Q1DB03). Nature of the test: SEC; analytical SEC, Superdex 200 Increase 10/300, 0.5 ml/min, A280; proteins alone or MglB:MglC mixed 1:1, 2:1 and 1:2; MglB mutants mixed with MglC 2:1. In general terms: In gel filtration, larger molecules generally elute earlier.
Test [4] deals with Mutual gliding motility protein C (MglC) (Myxococcus xanthus). The test is described as above.
For test [5], the target named is Mutual gliding-motility protein B (MglB) (Myxococcus xanthus) (UniProt Q1DB03). Put plainly: ITC; 25 °C; 50 μM MglB in the cell titrated with 500 μM MglC; one set of sites model; triplicates. For orientation: ITC needs no label: the signal is the heat of the interaction.
The target of test [6] is T1, Mutual gliding-motility protein B (MglB) (Myxococcus xanthus), Q1DB03.
T1 chain: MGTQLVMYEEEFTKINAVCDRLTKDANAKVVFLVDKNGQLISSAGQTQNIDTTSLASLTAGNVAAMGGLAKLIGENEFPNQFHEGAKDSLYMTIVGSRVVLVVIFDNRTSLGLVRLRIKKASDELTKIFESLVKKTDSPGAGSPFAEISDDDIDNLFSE
Put plainly: SAXS; SAXSpace line collimation, 20 °C; MglB 25, 15, 10 mg/ml; MglC 35, 15, 20 mg/ml; MglBC and MglB^ΔCTC complexes freshly eluted from SEC. The note with it: remark: other sources report otherwise.

Test [7] concerns the target T1, Mutual gliding-motility protein B …. Nature of the test: SEC; analytical SEC, Superdex 200 Increase 10/300, 0.5 ml/min, A280; proteins alone or MglB:MglC mixed 1:1, 2:1 and 1:2; MglB mutants mixed with MglC 2:1. Particulars: remark: other sources report otherwise.

By stoichiometry N is commonly meant a count of units in the complex or per binding partner. By Kd is commonly meant the constant that tells how readily two partners part at equilibrium. A higher Kd goes with a looser complex. Take “Mutual gliding motility protein C (MglC) (natural protein)”: the stoichiometry N (MglC per MglB) in test [1] and in test [3] was 0.5 throughout. Moreover, the stoichiometry N in test [2] was found to be 2; in test [4], 2; in test [5] it was 0.51. Also, the Kd in test [5] is 417 nM. In test [5], this molecule returned a dH of 6.94 kcal/mol.

B1: Mutual gliding-motility protein B (MglB), Q1DB03 1-159 (natural protein)
chain: MGTQLVMYEEEFTKINAVCDRLTKDANAKVVFLVDKNGQLISSAGQTQNIDTTSLASLTAGNVAAMGGLAKLIGENEFPNQFHEGAKDSLYMTIVGSRVVLVVIFDNRTSLGLVRLRIKKASDELTKIFESLVKKTDSPGAGSPFAEISDDDIDNLFSE
Regarding B1, the stoichiometry N in test [6] and in test [7] was 2 in each case.

The values are drawn from publication PMC7949163.
